Data on 1 substance can be found in patent US20170121390A1.

This test concerns the target HCV E1-E2 protein complex of hepatitis C virus isolate H77 (genotype 1a), expressed from plasmid pcDNA3.1-E1E2 (hepatitis C virus isolate H77 (genotype 1a)) (UniProt P27958). In words: cell-based or functional assay.

For the substance “fully human monoclonal antibody Adalimumab (brand name Humira)”, the Degree of inhibition (times) is 1.09 times and the Infection effectiveness (percentage of fluorescent cells) came out at 58.1%.
